T1: FcγRIIb (human, UniProt P31994 43-217)
T1 construct: extracellular domain; Soluble extracellular domain with C-terminal His tag, expressed in FreeStyle293 cells; also called FcgRIIb; 2b; not shown: C-terminal His tag
T1 sequence (looked up): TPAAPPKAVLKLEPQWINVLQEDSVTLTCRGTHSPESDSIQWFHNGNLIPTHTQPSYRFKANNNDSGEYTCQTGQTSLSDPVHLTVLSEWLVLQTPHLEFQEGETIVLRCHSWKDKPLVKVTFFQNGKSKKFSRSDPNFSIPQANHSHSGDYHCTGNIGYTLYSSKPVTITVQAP

T2: FcγRIIa H (human, UniProt P12318 34-217)
T2 construct: extracellular domain; Soluble extracellular domain with C-terminal His tag, expressed in FreeStyle293 cells; also called FcgRIIa H; 2aH; not shown: C-terminal His tag
T2 sequence (looked up): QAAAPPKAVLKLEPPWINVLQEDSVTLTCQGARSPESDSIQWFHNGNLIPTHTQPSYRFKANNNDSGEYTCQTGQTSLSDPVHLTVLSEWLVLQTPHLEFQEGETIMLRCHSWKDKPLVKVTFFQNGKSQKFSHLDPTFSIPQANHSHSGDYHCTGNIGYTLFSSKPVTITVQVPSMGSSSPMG

T3: FcγRIIa R (human, UniProt P12318 34-217)
T3 construct: extracellular domain; also called FcgRIIa R; FcγRIIa type R
T3 sequence (looked up): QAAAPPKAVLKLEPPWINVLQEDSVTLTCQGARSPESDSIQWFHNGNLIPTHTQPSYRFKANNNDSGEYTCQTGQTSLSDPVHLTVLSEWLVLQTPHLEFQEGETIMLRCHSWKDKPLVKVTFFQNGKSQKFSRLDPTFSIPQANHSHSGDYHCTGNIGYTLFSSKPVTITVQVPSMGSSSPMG

T4: FcγRIIb (human, UniProt P31994 43-217)
T4 construct: extracellular domain; also called FcgRIIb
T4 sequence (looked up): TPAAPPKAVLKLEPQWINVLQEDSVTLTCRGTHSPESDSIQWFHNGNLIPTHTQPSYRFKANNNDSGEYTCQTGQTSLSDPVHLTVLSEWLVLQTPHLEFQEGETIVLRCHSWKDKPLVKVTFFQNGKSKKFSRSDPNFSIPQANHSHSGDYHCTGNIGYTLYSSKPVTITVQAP


Key:
FcγRIIb [1] = molecular target: T1, FcγRIIb; assay: SPR (Biacore), antibody captured, FcγR as analyte; relative to HeCon Ab
Procedure: (§1) The heterodimerized antibodies He Abs in which one of the H chains was introduced with an alteration were assayed for their binding activities to each activating FcγR and inhibitory FcγR according to the method described in Example 4. […] The activating FcγRs in FIGS. 26, 27, 28, and 29 are FcγRIa, FcγRIIa (R), FcγRIIa (H), and FcγRIIIa, respectively.
(§2) Analysis of interaction between objective antibody and the FcγR was carried out using Biacore T100 (GE Healthcare). HBS-EP+ (GE Healthcare) was used as the running buffer, and the measurement temperature was set to 25° C. Chips produced by immobilizing the antigen peptide by the amine coupling method to a Series S Sencor Chip CM5 (GE Healthcare), or alternatively, chips produced by allowing preliminarily biotinylated antigen peptides to interact with and immobilize onto a Series S Sensor Chip SA (certified) (GE Healthcare) were used. Antibodies of interest were captured onto an antigen peptide-immobilized chip, and allowed to interact to each FcγR diluted with running buffer. To regenerate and repeatedly use the chip, the antibodies captured on the chip were washed off by reacting 10 mM glycine-HCl, pH 1.5.

FcγRIIa H = molecular target: T2, FcγRIIa H; assay: as above
Procedure: as §1, §2

FcγRIIa R [2] = molecular target: T3, FcγRIIa R; assay: SPR (Biacore), captured antibody, FcγR analyte; binding relative to GpH7-A5/GpH7-B3/GpL16-k0 = 100
FcγRIIb [3] = molecular target: T4, FcγRIIb; assay: as above
FcγRIIa R [4] = molecular target: T3, FcγRIIa R; assay: He/Con_2aR divided by He/Con_2b (FcγRIIa R over FcγRIIb); SPR (Biacore)

Binder | He/Con_2b (FcγRIIb [1]) | He/Con_2aH (FcγRIIa H) | He/Con_2aR (IIaR binding) (FcγRIIa R [2]) | He/Con_2b (IIb binding) (FcγRIIb [3]) | IIaR/IIb (He_2aR/2b) (FcγRIIa R [4])
GpH7-A5/GpH7-B3 variant A330_08L/GpL16-k0 (antibody, human IgG1, kappa, He Ab; IgG1; mutation in one H chain only) heavy 1: not shown heavy 2: not shown light: DIVMTQSPLSLPVTPGEPASISCQASESLVHSNRNTYLHWYLQKPGQSPQLLIYKVSNRFSGVPDRFSGSGSGTDFTLKISRVEAEDVGVYYCSQNTHVPPTFGQGTKVEIERTVAAPSVFIFPPSDEQLKSGTASVVCLLNNFYPREAKVQWKVDNALQSGNSQESVTEQDSKDSTYSLSSTLTLSKADYEKHKVYACEVTHQGLSSPVTKSFNRGEC | – | – | 88.8 control=100 | 70.5 control=100 | 1.26 ratio
GpH7-A5/GpH7-B3 variant A330_12R/GpL16-k0 (antibody, human IgG1, kappa, He Ab; IgG1; mutation in one H chain only) heavy 1: not shown heavy 2: not shown light: DIVMTQSPLSLPVTPGEPASISCQASESLVHSNRNTYLHWYLQKPGQSPQLLIYKVSNRFSGVPDRFSGSGSGTDFTLKISRVEAEDVGVYYCSQNTHVPPTFGQGTKVEIERTVAAPSVFIFPPSDEQLKSGTASVVCLLNNFYPREAKVQWKVDNALQSGNSQESVTEQDSKDSTYSLSSTLTLSKADYEKHKVYACEVTHQGLSSPVTKSFNRGEC | – | – | 104 control=100 | 84.8 control=100 | 1.22 ratio
GpH7-A5/GpH7-B3 variant A330_13S/GpL16-k0 (antibody, human IgG1, kappa, He Ab; IgG1; mutation in one H chain only) heavy 1: not shown heavy 2: not shown light: DIVMTQSPLSLPVTPGEPASISCQASESLVHSNRNTYLHWYLQKPGQSPQLLIYKVSNRFSGVPDRFSGSGSGTDFTLKISRVEAEDVGVYYCSQNTHVPPTFGQGTKVEIERTVAAPSVFIFPPSDEQLKSGTASVVCLLNNFYPREAKVQWKVDNALQSGNSQESVTEQDSKDSTYSLSSTLTLSKADYEKHKVYACEVTHQGLSSPVTKSFNRGEC | – | – | 60.8 control=100 | 41.3 control=100 | 1.47 ratio

Continued, values first:

He/Con_2b (FcγRIIb [1]) | He/Con_2aH (FcγRIIa H) | He/Con_2aR (IIaR binding) (FcγRIIa R [2]) | He/Con_2b (IIb binding) (FcγRIIb [3]) | IIaR/IIb (He_2aR/2b) (FcγRIIa R [4]) | Binder
105 % of GpH7-A5/GpH7-B3/GpL16-k0 (=100) | 71.3 % of GpH7-A5/GpH7-B3/GpL16-k0 (=100) | – | – | – | GpH7-A5/GpH7-B3 variant S267_01G/GpL16-k0 (antibody, human IgG1, kappa, Heterodimerized anti-glypican-3 IgG1; alteration in the GpH7-B3 chain only; also called He Ab) heavy 1: not shown heavy 2: not shown light: DIVMTQSPLSLPVTPGEPASISCQASESLVHSNRNTYLHWYLQKPGQSPQLLIYKVSNRFSGVPDRFSGSGSGTDFTLKISRVEAEDVGVYYCSQNTHVPPTFGQGTKVEIERTVAAPSVFIFPPSDEQLKSGTASVVCLLNNFYPREAKVQWKVDNALQSGNSQESVTEQDSKDSTYSLSSTLTLSKADYEKHKVYACEVTHQGLSSPVTKSFNRGEC
144 % of GpH7-A5/GpH7-B3/GpL16-k0 (=100) | 97 % of GpH7-A5/GpH7-B3/GpL16-k0 (=100) | – | – | – | GpH7-A5/GpH7-B3 variant S239_01G/GpL16-k0 (antibody, human IgG1, kappa, Heterodimerized anti-glypican-3 IgG1; alteration in the GpH7-B3 chain only; also called He Ab) heavy 1: not shown heavy 2: not shown light: DIVMTQSPLSLPVTPGEPASISCQASESLVHSNRNTYLHWYLQKPGQSPQLLIYKVSNRFSGVPDRFSGSGSGTDFTLKISRVEAEDVGVYYCSQNTHVPPTFGQGTKVEIERTVAAPSVFIFPPSDEQLKSGTASVVCLLNNFYPREAKVQWKVDNALQSGNSQESVTEQDSKDSTYSLSSTLTLSKADYEKHKVYACEVTHQGLSSPVTKSFNRGEC
192 % of GpH7-A5/GpH7-B3/GpL16-k0 (=100) | 34.7 % of GpH7-A5/GpH7-B3/GpL16-k0 (=100) | – | – | – | GpH7-A5/GpH7-B3 variant S267_07I/GpL16-k0 (antibody, human IgG1, kappa, Heterodimerized anti-glypican-3 IgG1; alteration in the GpH7-B3 chain only; also called He Ab) heavy 1: not shown heavy 2: not shown light: DIVMTQSPLSLPVTPGEPASISCQASESLVHSNRNTYLHWYLQKPGQSPQLLIYKVSNRFSGVPDRFSGSGSGTDFTLKISRVEAEDVGVYYCSQNTHVPPTFGQGTKVEIERTVAAPSVFIFPPSDEQLKSGTASVVCLLNNFYPREAKVQWKVDNALQSGNSQESVTEQDSKDSTYSLSSTLTLSKADYEKHKVYACEVTHQGLSSPVTKSFNRGEC
107 % of GpH7-A5/GpH7-B3/GpL16-k0 (=100) | 91.5 % of GpH7-A5/GpH7-B3/GpL16-k0 (=100) | – | – | – | GpH7-A5/GpH7-B3 variant S239_07I/GpL16-k0 (antibody, human IgG1, kappa, Heterodimerized anti-glypican-3 IgG1; alteration in the GpH7-B3 chain only; also called He Ab) heavy 1: not shown heavy 2: not shown light: DIVMTQSPLSLPVTPGEPASISCQASESLVHSNRNTYLHWYLQKPGQSPQLLIYKVSNRFSGVPDRFSGSGSGTDFTLKISRVEAEDVGVYYCSQNTHVPPTFGQGTKVEIERTVAAPSVFIFPPSDEQLKSGTASVVCLLNNFYPREAKVQWKVDNALQSGNSQESVTEQDSKDSTYSLSSTLTLSKADYEKHKVYACEVTHQGLSSPVTKSFNRGEC
119 % of GpH7-A5/GpH7-B3/GpL16-k0 (=100) | 94.2 % of GpH7-A5/GpH7-B3/GpL16-k0 (=100) | – | – | – | GpH7-A5/GpH7-B3 variant S239_18N/GpL16-k0 (antibody, human IgG1, kappa, Heterodimerized anti-glypican-3 IgG1; alteration in the GpH7-B3 chain only; also called He Ab) heavy 1: not shown heavy 2: not shown light: DIVMTQSPLSLPVTPGEPASISCQASESLVHSNRNTYLHWYLQKPGQSPQLLIYKVSNRFSGVPDRFSGSGSGTDFTLKISRVEAEDVGVYYCSQNTHVPPTFGQGTKVEIERTVAAPSVFIFPPSDEQLKSGTASVVCLLNNFYPREAKVQWKVDNALQSGNSQESVTEQDSKDSTYSLSSTLTLSKADYEKHKVYACEVTHQGLSSPVTKSFNRGEC

Source: patent US20180155451A1 (published 2018)
